Results on two proteins are retold here after PMC6050298, “Highly active enzymes by automated combinatorial backbone assembly and sequence design” (Nature Communications, 2018).

Substrate in data set [1]: O=[N+]([O-])c1ccc(O[C@@H]2OC[C@@H](O[C@@H]3OC[C@@H](O)[C@H](O)[C@H]3O)[C@H](O)[C@H]2O)cc1
In words: purified protein. The format is biochemical, Geobacillus stearothermophilus. The note with it: 37 °C, 50 mM Tris pH 6.5, 150 mM NaCl, MBP fusion.

Substrate in data set [2]: O=[N+]([O-])c1ccc(O[C@@H]2OC[C@@H](O[C@@H]3OC[C@@H](O)[C@H](O)[C@H]3O)[C@H](O)[C@H]2O)cc1
In words: purified protein. As to conditions: 37 °C, 50 mM Tris pH 6.5, 150 mM NaCl, MBP fusion. It is filed as biochemical, synthetic construct.

B1: Xylanase from Geobacillus stearothermophilus (PDB ID: 4PUD) (Geobacillus stearothermophilus) (protein)
chain: KPHISALNAPQLDQRYKNEFTIGAAVEPYQLQNEKDVQMLKRHFNSIVAENVMKPISIQPEEGKFNFEQADRIVKFAKANGMDIRFHTLVWHSQVPQWFFLDKEGKPMVNETDPVKREQNKQLLLKRLETHIKTIVERYKDDIKYWDVVNEVVGDDGKLRNSPWYQIAGIDYIKVAFQAARKYGGDNIKLYMNDYNTEVEPKRTALYNLVKQLKEEGVPIDGIGHQSHIQIGWPSEAEIEKTINMFAALGLDNQITELDVSMYGWPPRAYPTYDAIPKQKFLDQAARYDRLFKLYEKLSDKISNVTFWGIADNHTWLDSRADVYYDANGNVVVDPNAPYAKVEKGKGKDAPFVFGPDYKVKPAYWAIIDHK
notes: synthetic codon-optimised gene, N-terminal His6-MBP fusion kept in assay, E. coli BL21 DE3; monomer; 4PUD names the template structure
In general, Km refers to the substrate concentration at which the rate is half of its maximum. The kcat is the maximal rate divided by the concentration of active sites. For B1, in the data set “purified protein [1]”, the Km was 160 ± 20 µM and the kcat was determined as 6.47 ± 0.04 s⁻¹.

B2: xyl3.1 (synthetic construct) (protein)
chain: TIGSEFKPHISALNAPSLAQRYKDYFYIGAAVEPYQTTKEKDAKMLQRHFNMIVAENAMKPAALEPTEGNFQWADADRIVQFAKENGMELRFHTLVWHNQTPDWFFLDREGKPMVEETDPQKREENRELLLQRLENHIRAVVLRYKDDIKNWDVVNEVVEPNDPGGMRNSPWYQITGTEYIEVAFRAAREAGGEDIKLYMNDYNTEQEPKREYIYRLIKKLLEKGVPIDGVGHQAHVTIDRPPVDEIKKTIQRFADLGLDNQITELDVSLYGWPPRPAYPTYDAIPEERFQAQADRYRQLFELFEELKDHISAVTFWGIADNHTWLDDRAREYNDGVGKDAPFVFDPNYRVKPAYWAIINHK
notes: computational design (105 mutations to nearest natural protein), N-terminal His6-MBP fusion kept in assay
Turning to B2, in “purified protein [2]”, the Michaelis constant (Km) came out at 1820 ± 600 µM and the kcat came out at 17 ± 5 s⁻¹.
